Laboratory results taken from patent US20250082758A1.
Bridge positions count the residues as written; N and C are the ends. Ends that are not written are not given here. I, II: the chains in the order shown. * marks the point of attachment. Formula (I) = human serum albumin binder 2-[2-[2-[2-[2-[2-[2-(carbonylmethoxy)ethoxy]ethylamino]-2-oxo-ethoxy]ethoxy]ethylamino]-2-oxo-ethoxy]-5-(18-carboxyoctadecyl)benzoic acid, amide to Lys epsilon-N, O=C(O)CCCCCCCCCCCCCCCCCCc1ccc(OCC(=O)NCCOCCOCC(=O)NCCOCCOCC(=O)*)c(C(=O)O)c1

How the values were obtained:
[1] = molecular target: human insulin receptor isoform B (human) (UniProt P06213); assay: SPA competition with [125I]-labelled human insulin, membranes of CHO cells overexpressing IR
UniProt P06213, sequence (P06213 28-1382): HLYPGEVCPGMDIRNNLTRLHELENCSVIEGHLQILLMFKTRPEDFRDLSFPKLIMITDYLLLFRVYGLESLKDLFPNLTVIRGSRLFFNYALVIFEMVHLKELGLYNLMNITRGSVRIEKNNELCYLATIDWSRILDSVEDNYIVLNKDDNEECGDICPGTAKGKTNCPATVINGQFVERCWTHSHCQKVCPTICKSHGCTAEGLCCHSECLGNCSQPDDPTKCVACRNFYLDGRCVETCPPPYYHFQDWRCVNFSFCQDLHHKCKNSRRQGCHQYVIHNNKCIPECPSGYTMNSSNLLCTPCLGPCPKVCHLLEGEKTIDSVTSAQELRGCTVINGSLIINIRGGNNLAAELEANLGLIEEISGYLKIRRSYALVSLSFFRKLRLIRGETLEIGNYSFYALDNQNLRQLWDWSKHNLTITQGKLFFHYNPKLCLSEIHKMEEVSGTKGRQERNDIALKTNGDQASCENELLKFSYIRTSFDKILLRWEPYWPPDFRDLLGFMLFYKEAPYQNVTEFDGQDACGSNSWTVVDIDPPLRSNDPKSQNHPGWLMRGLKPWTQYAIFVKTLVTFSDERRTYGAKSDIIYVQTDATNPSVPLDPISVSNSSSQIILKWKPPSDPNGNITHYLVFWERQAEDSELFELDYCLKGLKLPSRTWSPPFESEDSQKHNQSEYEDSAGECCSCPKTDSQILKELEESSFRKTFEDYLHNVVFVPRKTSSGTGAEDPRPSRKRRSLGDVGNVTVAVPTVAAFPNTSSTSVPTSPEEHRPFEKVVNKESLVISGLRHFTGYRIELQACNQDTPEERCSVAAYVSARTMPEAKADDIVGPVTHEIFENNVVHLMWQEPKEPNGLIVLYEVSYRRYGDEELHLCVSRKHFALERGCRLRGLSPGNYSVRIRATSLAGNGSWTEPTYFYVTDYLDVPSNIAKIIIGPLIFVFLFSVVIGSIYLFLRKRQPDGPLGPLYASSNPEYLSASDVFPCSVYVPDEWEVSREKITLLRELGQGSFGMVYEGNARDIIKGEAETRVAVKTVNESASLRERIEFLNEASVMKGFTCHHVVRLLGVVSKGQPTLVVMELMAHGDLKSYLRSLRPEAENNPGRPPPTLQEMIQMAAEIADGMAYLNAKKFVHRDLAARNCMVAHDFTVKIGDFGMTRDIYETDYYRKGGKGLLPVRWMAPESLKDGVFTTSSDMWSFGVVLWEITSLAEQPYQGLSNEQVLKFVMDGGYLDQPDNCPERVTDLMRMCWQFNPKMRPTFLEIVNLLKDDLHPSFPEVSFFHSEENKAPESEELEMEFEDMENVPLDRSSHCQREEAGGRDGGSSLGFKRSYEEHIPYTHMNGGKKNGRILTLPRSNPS

[2] = molecular target: human insulin receptor isoform B (human) (UniProt P06213); assay: cell-based or functional assay

Insulin receptor B binding affinity relative to human insulin [1]: < 2%
Insulin-receptor binding affinity relative to human insulin (relative to human insulin) [1]: 0.01
Autophosphorylation activity (relative to human insulin) (relative to human insulin) [2]: 0.07
B1: Conjugate 1: Arg(A5)Glu(A14)Arg(A18)Gly(A21)Glu(B16)His(B25)Arg(B27)Arg(B31)-insulin with the human serum albumin binder of Formula (I) on Lys(B29) (ligand)
chain 1: GIVERCCTSICSLEQLERYCG
chain 2: FVNQHLCGSHLVEALELVCGERGFHYRPK(Formula (I))TR
modifications: disulfide I:6-I:11, I:20-II:19, I:7-II:7
